{"source": "patent US9314421B2", "about": "“Ultrasound-enhanced intrascleral delivery of macromolecules” (The Hong Kong University of Science and Technology, priority 2009, dated 2016)", "key": {"[1]": {"conditions": "with ultrasound; cited from earlier work"}, "[2]": {"assay_type": "in vitro ADME, New Zealand White Rabbit", "description": "The eyes of New Zealand White Rabbits (6-month to one-year-old) were enucleated immediately after the rabbits were sacrificed. The eyes were kept on ice prior to experiments and the time lag never exceeded 15 minutes to ensure tissue freshness. All the periocular tissues (muscles and conjunctiva) were removed and the optic nerve was sealed with Vaseline®. The eye was immersed in a container filled with 4 ml of 0.1% FITC-BSA or BBS+®. An ultrasound transducer with a probe size of 1 cm^2 (BTL-4000, BTL Industries, Inc., Clark, N.J.) was positioned a few millimeters above the sclera near the equator. The zone of ultrasound application was labeled with a marker. Ultrasound at a therapeutic frequency (1 MHz) and a low power input (0.5 W/cm^2) was applied for 30 seconds. The eye continued to be immersed in 0.1% FITC-BSA or BBS+® for different time intervals (5, 15, 30 and 60 minutes for 0.1% FITC-BSA; 15 minutes for BSS+®). All of the experiments were carried out at room temperature. The scleral surface temperature at the ultrasound application zone before and after treatment was measured using a thermocouple. Controls were performed by immersing the eyes for different time intervals without ultrasound application.\nImmediately after the ex vivo experiments, the whole eye was washed and immersed in a mould filled with optimum cutting temperature medium (O.C.T) (Leica, Wetzlar, Germany), followed by quick-freezing in liquid nitrogen. 10 μm thick sections across the marked ultrasound application zone of the eye were cut using a cryostat (CM1850, Leica, Wetzlar, Germany). Polylysine-coated slides were used for collecting the tissue sections.\nAll images were acquired using a fluorescence microscope (BX 41, Olympus, Center Valley, Pa.). The image of the sclera was captured under optical mode, and FITC-BSA penetration into the sclera was captured under fluorescence mode (bandpass filter: 510-550 nm, dichroic mirror: 570 nm, barrier filter: 590 nm, exposure time: […]). The pictures shown in the FIGS. 15-17 were merged images of these two modes. The thickness of the sclera and the penetration distance of FITC-BSA were obtained using the software SPOT® (Diagnostic Instruments, Inc., MI, USA). For each experiment or control, 2 to 4 eyes from different rabbits were used. Three tissue sections were obtained from each eye and at least 20 measurements on the penetration distance were made in each eye. Only images showing intact sclera were used for measurement to avoid ambiguity.\nIn the first set of experiments, the parameters of the ultrasound used were set as follows: frequency: 1 MHz, power: 0.5 W/cm^2, application duration: 30 seconds, size of transducer: 1 cm^2. Freshly enucleated New Zealand White Rabbit eyes were used as an ex vivo eye model, and 65 kDa protein fluorescent albumin was used as the model macromolecule. Whole rabbit eyes were immersed in fluorescent albumin solution. Ultrasound was applied for 30 s and then the eyes were kept in fluorescent albumin for 5, 15 or 30 minutes. For the control experiment, the eyes were immersed in fluorescent albumin for 15 minutes without ultrasound application. The eyes were then flash frozen in OCT (Optimum Cutting Temperature) medium with liquid nitrogen and sectioned in cryostat for further investigation.\nBriefly, the parameters of the ultrasound were set as follows: frequency: 1 MHz, power: 0.5 W/cm^2, application duration: 30 seconds, size of transducer: 1 cm^2. […]"}, "[3]": {"assay": "Calculation of intrascleral diffusivity from penetration distance versus square root of time", "assay_type": "in vitro ADME, New Zealand White Rabbit", "conditions": "for intrascleral diffusivity: 37° C.", "description": "The one-dimensional diffusion model describing the penetration distance (L), diffusivity (D) and time of diffusion (t) is given by the equation below (23): L=√{square root over (2Dt)}. (1)\nA plot of the penetration distance versus the square root of time yields a straight line. The diffusivity is calculated from the slope, which equals […].\nThe diffusivity measured at room temperature is converted to the value at 37° C. according to Stokes-Einstein equation, which gives\n[formula] where D and η are diffusivity and viscosity respectively, with the temperature designated at the subscript. Since the experiment was conducted in dilute buffer solution, the viscosity of water is used. Histological Study"}}, "note": "Where “and” joins values, the source holds several entries; their conditions need not be identical. Identical values can stand only once."}
{"compound": "O=C([O-])c1ccccc1-c1c2ccc(=O)cc-2oc2cc([O-])ccc12.[Na+].[Na+]", "note": "[sodium fluorescein]", "values": [{"measurement": "enhancement of delivery through the cornea versus passive diffusion", "setting": "[1]", "result": "ten times"}]}
{"compound": "FITC-BSA: 65 kDa protein fluorescent albumin used as the model macromolecule", "values": [{"measurement": "depth of intrascleral site reached", "setting": "[2]", "result": "about 110 μm"}, {"measurement": "increase in percentage of depth of protein penetration versus control", "setting": "[2]", "result": 4, "unit": "folds"}, {"measurement": "level of penetration (qualitative)", "setting": "[2]", "result": "failed to penetrate into the sclera"}, {"measurement": "penetration depth", "setting": "[2]", "result": "15.8±5.7", "unit": "μm"}, {"measurement": "penetration versus sample without 15-minute BSS+ pretreatment", "setting": "[2]", "result": "much lower"}, {"measurement": "increase in ocular diffusivity", "setting": "[3]; 0.5 W/cm^2, 1 MHz ultrasound for 30 seconds", "result": 2, "unit": "folds"}, {"measurement": "intrascleral diffusivity", "setting": "[3]; control without ultrasound", "result": "3.90×10^−08 cm^2/sec"}, {"measurement": "intrascleral diffusivity", "setting": "[3]; with ultrasound, first 15 min", "result": "6.17×10^−8 cm^2/sec and 6.17×10^−08 cm^2/sec"}, {"measurement": "intrascleral diffusivity", "setting": "[3]; with ultrasound, from 15 to 60 min", "result": "4.18×10^−8 cm^2/sec"}, {"measurement": "increase in diffusivity by ultrasound treatment", "setting": "[3]; first 15 minutes, ultrasound versus no ultrasound", "result": 1.6, "unit": "times"}]}
